# Reference: patent US20190185537A1 (AstraZeneca / MedImmune, published 2019)
# Numbered stars: 1 amine (or outer) side, 2 acyl side, 3 side chain; on linkers, the order of the positions; unused ones are H or OH. Side chains are listed from the residue outwards. Ends that are not written are not given here. * marks the point of attachment. γGlu = O=C(O)[C@H](CCC(=O)[*:2])N[*:1]; Palmitoyl = CCCCCCCCCCCCCCCC(=O)*
# T1: human glucose-dependent insulinotropic peptide (gastric inhibitory polypeptide) receptor (human) (UniProt P48546)
# T1 sequence (looked up): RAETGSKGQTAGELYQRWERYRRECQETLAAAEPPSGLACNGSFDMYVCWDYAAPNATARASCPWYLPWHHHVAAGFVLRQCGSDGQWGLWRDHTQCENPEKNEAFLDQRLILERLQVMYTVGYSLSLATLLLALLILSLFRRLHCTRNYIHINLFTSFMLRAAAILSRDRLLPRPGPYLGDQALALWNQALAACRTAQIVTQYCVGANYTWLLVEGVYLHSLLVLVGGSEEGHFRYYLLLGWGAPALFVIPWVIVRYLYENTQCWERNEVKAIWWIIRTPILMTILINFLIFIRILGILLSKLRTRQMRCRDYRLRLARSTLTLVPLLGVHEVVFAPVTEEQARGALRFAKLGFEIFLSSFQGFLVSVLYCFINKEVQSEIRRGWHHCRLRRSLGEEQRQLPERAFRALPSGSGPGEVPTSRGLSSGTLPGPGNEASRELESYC
# B1: g716 (peptide)
# peptide: HSQGTFTSDYK([γGlu-Palmitoyl])KYLDSRRAQDFVQWLVAGG-NH2
# modifications: N-terminus assumed
# SMILES: CCCCCCCCCCCCCCCC(=O)N[C@@H](CCC(=O)NCCCC[C@H](NC(=O)[C@H](Cc1ccc(O)cc1)NC(=O)[C@H](CC(=O)O)NC(=O)[C@H](CO)NC(=O)[C@@H](NC(=O)[C@H](Cc1ccccc1)NC(=O)[C@@H](NC(=O)CNC(=O)[C@H](CCC(N)=O)NC(=O)[C@H](CO)NC(=O)[C@@H](N)Cc1c[nH]cn1)[C@@H](C)O)[C@@H](C)O)C(=O)N[C@@H](CCCCN)C(=O)N[C@@H](Cc1ccc(O)cc1)C(=O)N[C@@H](CC(C)C)C(=O)N[C@@H](CC(=O)O)C(=O)N[C@@H](CO)C(=O)N[C@@H](CCCNC(=N)N)C(=O)N[C@@H](CCCNC(=N)N)C(=O)N[C@@H](C)C(=O)N[C@@H](CCC(N)=O)C(=O)N[C@@H](CC(=O)O)C(=O)N[C@@H](Cc1ccccc1)C(=O)N[C@H](C(=O)N[C@@H](CCC(N)=O)C(=O)N[C@@H](Cc1c[nH]c2ccccc12)C(=O)N[C@@H](CC(C)C)C(=O)N[C@H](C(=O)N[C@@H](C)C(=O)NCC(=O)NCC(N)=O)C(C)C)C(C)C)C(=O)O
# B2: g728 (peptide)
# peptide: HSQGTFTSDYSK([γGlu-Palmitoyl])YLDSERARDFVAWLVAGG-NH2
# modifications: N-terminus assumed
# SMILES: CCCCCCCCCCCCCCCC(=O)N[C@@H](CCC(=O)NCCCC[C@H](NC(=O)[C@H](CO)NC(=O)[C@H](Cc1ccc(O)cc1)NC(=O)[C@H](CC(=O)O)NC(=O)[C@H](CO)NC(=O)[C@@H](NC(=O)[C@H](Cc1ccccc1)NC(=O)[C@@H](NC(=O)CNC(=O)[C@H](CCC(N)=O)NC(=O)[C@H](CO)NC(=O)[C@@H](N)Cc1c[nH]cn1)[C@@H](C)O)[C@@H](C)O)C(=O)N[C@@H](Cc1ccc(O)cc1)C(=O)N[C@@H](CC(C)C)C(=O)N[C@@H](CC(=O)O)C(=O)N[C@@H](CO)C(=O)N[C@@H](CCC(=O)O)C(=O)N[C@@H](CCCNC(=N)N)C(=O)N[C@@H](C)C(=O)N[C@@H](CCCNC(=N)N)C(=O)N[C@@H](CC(=O)O)C(=O)N[C@@H](Cc1ccccc1)C(=O)N[C@H](C(=O)N[C@@H](C)C(=O)N[C@@H](Cc1c[nH]c2ccccc12)C(=O)N[C@@H](CC(C)C)C(=O)N[C@H](C(=O)N[C@@H](C)C(=O)NCC(=O)NCC(N)=O)C(C)C)C(C)C)C(=O)O
# B3: g820 (peptide)
# peptide: HSQGTFTSDYSRK([γGlu-Palmitoyl])LDSERARDFVAWLVAGG-NH2
# modifications: N-terminus assumed
# SMILES: CCCCCCCCCCCCCCCC(=O)N[C@@H](CCC(=O)NCCCC[C@H](NC(=O)[C@H](CCCNC(=N)N)NC(=O)[C@H](CO)NC(=O)[C@H](Cc1ccc(O)cc1)NC(=O)[C@H](CC(=O)O)NC(=O)[C@H](CO)NC(=O)[C@@H](NC(=O)[C@H](Cc1ccccc1)NC(=O)[C@@H](NC(=O)CNC(=O)[C@H](CCC(N)=O)NC(=O)[C@H](CO)NC(=O)[C@@H](N)Cc1c[nH]cn1)[C@@H](C)O)[C@@H](C)O)C(=O)N[C@@H](CC(C)C)C(=O)N[C@@H](CC(=O)O)C(=O)N[C@@H](CO)C(=O)N[C@@H](CCC(=O)O)C(=O)N[C@@H](CCCNC(=N)N)C(=O)N[C@@H](C)C(=O)N[C@@H](CCCNC(=N)N)C(=O)N[C@@H](CC(=O)O)C(=O)N[C@@H](Cc1ccccc1)C(=O)N[C@H](C(=O)N[C@@H](C)C(=O)N[C@@H](Cc1c[nH]c2ccccc12)C(=O)N[C@@H](CC(C)C)C(=O)N[C@H](C(=O)N[C@@H](C)C(=O)NCC(=O)NCC(N)=O)C(C)C)C(C)C)C(=O)O
# B4: g715 (peptide)
# peptide: HSQGTFTSDK([γGlu-Palmitoyl])SKYLDSRRAQDFVQWLVAGG-NH2
# modifications: N-terminus assumed
# SMILES: CCCCCCCCCCCCCCCC(=O)N[C@@H](CCC(=O)NCCCC[C@H](NC(=O)[C@H](CC(=O)O)NC(=O)[C@H](CO)NC(=O)[C@@H](NC(=O)[C@H](Cc1ccccc1)NC(=O)[C@@H](NC(=O)CNC(=O)[C@H](CCC(N)=O)NC(=O)[C@H](CO)NC(=O)[C@@H](N)Cc1c[nH]cn1)[C@@H](C)O)[C@@H](C)O)C(=O)N[C@@H](CO)C(=O)N[C@@H](CCCCN)C(=O)N[C@@H](Cc1ccc(O)cc1)C(=O)N[C@@H](CC(C)C)C(=O)N[C@@H](CC(=O)O)C(=O)N[C@@H](CO)C(=O)N[C@@H](CCCNC(=N)N)C(=O)N[C@@H](CCCNC(=N)N)C(=O)N[C@@H](C)C(=O)N[C@@H](CCC(N)=O)C(=O)N[C@@H](CC(=O)O)C(=O)N[C@@H](Cc1ccccc1)C(=O)N[C@H](C(=O)N[C@@H](CCC(N)=O)C(=O)N[C@@H](Cc1c[nH]c2ccccc12)C(=O)N[C@@H](CC(C)C)C(=O)N[C@H](C(=O)N[C@@H](C)C(=O)NCC(=O)NCC(N)=O)C(C)C)C(C)C)C(=O)O
# B5: g322 (peptide)
# peptide: HSQGTFTSDYSKYLDSRRAQDFVQWLVAGGKNNRNNIAK(Palmitoyl)-NH2
# modifications: N-terminus assumed
# SMILES: CCCCCCCCCCCCCCCC(=O)NCCCC[C@H](NC(=O)[C@H](C)NC(=O)[C@@H](NC(=O)[C@H](CC(N)=O)NC(=O)[C@H](CC(N)=O)NC(=O)[C@H](CCCNC(=N)N)NC(=O)[C@H](CC(N)=O)NC(=O)[C@H](CC(N)=O)NC(=O)[C@H](CCCCN)NC(=O)CNC(=O)CNC(=O)[C@H](C)NC(=O)[C@@H](NC(=O)[C@H](CC(C)C)NC(=O)[C@H](Cc1c[nH]c2ccccc12)NC(=O)[C@H](CCC(N)=O)NC(=O)[C@@H](NC(=O)[C@H](Cc1ccccc1)NC(=O)[C@H](CC(=O)O)NC(=O)[C@H](CCC(N)=O)NC(=O)[C@H](C)NC(=O)[C@H](CCCNC(=N)N)NC(=O)[C@H](CCCNC(=N)N)NC(=O)[C@H](CO)NC(=O)[C@H](CC(=O)O)NC(=O)[C@H](CC(C)C)NC(=O)[C@H](Cc1ccc(O)cc1)NC(=O)[C@H](CCCCN)NC(=O)[C@H](CO)NC(=O)[C@H](Cc1ccc(O)cc1)NC(=O)[C@H](CC(=O)O)NC(=O)[C@H](CO)NC(=O)[C@@H](NC(=O)[C@H](Cc1ccccc1)NC(=O)[C@@H](NC(=O)CNC(=O)[C@H](CCC(N)=O)NC(=O)[C@H](CO)NC(=O)[C@@H](N)Cc1c[nH]cn1)[C@@H](C)O)[C@@H](C)O)C(C)C)C(C)C)[C@@H](C)CC)C(N)=O
# B6: g729 (peptide)
# peptide: HSQGTFTSDYSKK([γGlu-Palmitoyl])LDSERAQDFVQWLVAGG-NH2
# modifications: N-terminus assumed
# SMILES: CCCCCCCCCCCCCCCC(=O)N[C@@H](CCC(=O)NCCCC[C@H](NC(=O)[C@H](CCCCN)NC(=O)[C@H](CO)NC(=O)[C@H](Cc1ccc(O)cc1)NC(=O)[C@H](CC(=O)O)NC(=O)[C@H](CO)NC(=O)[C@@H](NC(=O)[C@H](Cc1ccccc1)NC(=O)[C@@H](NC(=O)CNC(=O)[C@H](CCC(N)=O)NC(=O)[C@H](CO)NC(=O)[C@@H](N)Cc1c[nH]cn1)[C@@H](C)O)[C@@H](C)O)C(=O)N[C@@H](CC(C)C)C(=O)N[C@@H](CC(=O)O)C(=O)N[C@@H](CO)C(=O)N[C@@H](CCC(=O)O)C(=O)N[C@@H](CCCNC(=N)N)C(=O)N[C@@H](C)C(=O)N[C@@H](CCC(N)=O)C(=O)N[C@@H](CC(=O)O)C(=O)N[C@@H](Cc1ccccc1)C(=O)N[C@H](C(=O)N[C@@H](CCC(N)=O)C(=O)N[C@@H](Cc1c[nH]c2ccccc12)C(=O)N[C@@H](CC(C)C)C(=O)N[C@H](C(=O)N[C@@H](C)C(=O)NCC(=O)NCC(N)=O)C(C)C)C(C)C)C(=O)O
# B7: g802 (peptide)
# peptide: HSQGTFTSDYSEK([γGlu-Palmitoyl])LDSERARDFVAWLVAGG-NH2
# modifications: N-terminus assumed
# SMILES: CCCCCCCCCCCCCCCC(=O)N[C@@H](CCC(=O)NCCCC[C@H](NC(=O)[C@H](CCC(=O)O)NC(=O)[C@H](CO)NC(=O)[C@H](Cc1ccc(O)cc1)NC(=O)[C@H](CC(=O)O)NC(=O)[C@H](CO)NC(=O)[C@@H](NC(=O)[C@H](Cc1ccccc1)NC(=O)[C@@H](NC(=O)CNC(=O)[C@H](CCC(N)=O)NC(=O)[C@H](CO)NC(=O)[C@@H](N)Cc1c[nH]cn1)[C@@H](C)O)[C@@H](C)O)C(=O)N[C@@H](CC(C)C)C(=O)N[C@@H](CC(=O)O)C(=O)N[C@@H](CO)C(=O)N[C@@H](CCC(=O)O)C(=O)N[C@@H](CCCNC(=N)N)C(=O)N[C@@H](C)C(=O)N[C@@H](CCCNC(=N)N)C(=O)N[C@@H](CC(=O)O)C(=O)N[C@@H](Cc1ccccc1)C(=O)N[C@H](C(=O)N[C@@H](C)C(=O)N[C@@H](Cc1c[nH]c2ccccc12)C(=O)N[C@@H](CC(C)C)C(=O)N[C@H](C(=O)N[C@@H](C)C(=O)NCC(=O)NCC(N)=O)C(C)C)C(C)C)C(=O)O
# Molecular target: human glucagon receptor (human, UniProt P47871 26-477)
# Sequence (P47871 26-477): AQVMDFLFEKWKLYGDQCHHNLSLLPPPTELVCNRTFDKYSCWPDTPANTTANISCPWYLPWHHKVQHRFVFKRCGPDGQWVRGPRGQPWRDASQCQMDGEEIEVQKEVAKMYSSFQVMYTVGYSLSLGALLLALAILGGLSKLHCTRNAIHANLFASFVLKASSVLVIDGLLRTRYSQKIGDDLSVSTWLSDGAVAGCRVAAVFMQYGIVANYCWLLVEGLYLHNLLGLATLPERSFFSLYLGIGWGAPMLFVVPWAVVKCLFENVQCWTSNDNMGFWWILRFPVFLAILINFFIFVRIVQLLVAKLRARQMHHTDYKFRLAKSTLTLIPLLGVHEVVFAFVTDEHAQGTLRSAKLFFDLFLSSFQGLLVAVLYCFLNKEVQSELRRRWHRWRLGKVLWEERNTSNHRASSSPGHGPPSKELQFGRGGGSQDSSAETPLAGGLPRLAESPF
# Assay: cell-based or functional assay
row,cAMP EC50 (assay 1) [pM],Binder
1,2460,B1
2,2440,B2
3,11.7,B3
4,2.53,B4
5,3.55,B5
6,31.9,B6
7,1810,B7

# Molecular target: human GLP-1 receptor (human, UniProt P43220 24-463)
# Sequence (P43220 24-463): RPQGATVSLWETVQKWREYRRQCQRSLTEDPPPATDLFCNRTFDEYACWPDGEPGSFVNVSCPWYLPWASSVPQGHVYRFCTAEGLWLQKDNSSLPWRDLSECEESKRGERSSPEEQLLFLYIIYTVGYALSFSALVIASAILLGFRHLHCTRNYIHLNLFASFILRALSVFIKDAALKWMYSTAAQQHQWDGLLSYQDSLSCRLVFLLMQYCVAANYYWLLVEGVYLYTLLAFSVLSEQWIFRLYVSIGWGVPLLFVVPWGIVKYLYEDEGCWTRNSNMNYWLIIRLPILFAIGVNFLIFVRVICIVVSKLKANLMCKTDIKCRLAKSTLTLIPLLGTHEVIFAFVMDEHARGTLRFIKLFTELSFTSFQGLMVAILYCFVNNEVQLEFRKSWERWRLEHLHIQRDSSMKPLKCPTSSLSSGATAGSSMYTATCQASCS
# Assay: cell-based or functional assay
row,cAMP EC50 (assay 1) [pM],Binder
1,12900,B1
2,169,B2
3,33.9,B3
4,20.4,B4
5,10.6,B5
6,72.9,B6
7,96.4,B7

# Molecular target: T1, human glucose-dependent insulinotropic peptide (gastric inhibitory polypeptide) receptor (human)
# Assay: cell-based or functional assay
row,cAMP EC50 (assay 1) [pM],Binder
1,11800,B1
2,395000,B2
3,71100,B3
4,998,B4
5,1720,B5
6,209000,B6
7,91200,B7
